The record followed here is paper PMC2739136.

Residue numbers refer to the chain shown, from its start.

What all share (assay): pull-down
The target in data set [1] is T1, MBP-TraR A222D, P33905.
T1 chain: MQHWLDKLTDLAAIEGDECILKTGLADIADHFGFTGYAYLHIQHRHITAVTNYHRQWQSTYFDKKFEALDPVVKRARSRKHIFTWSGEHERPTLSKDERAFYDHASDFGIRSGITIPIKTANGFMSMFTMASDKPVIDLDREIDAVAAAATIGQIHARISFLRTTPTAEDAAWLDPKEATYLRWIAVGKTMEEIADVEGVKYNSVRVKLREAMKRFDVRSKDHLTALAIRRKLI

The target of data set [2] is T2, MBP-TraR F161A, P33905.
T2 chain: T1 chain with F161A, D222A

Data set [3] deals with T3, MBP-TraR F161K, P33905.
T3 chain: T1 chain with F161K, D222A

Data set [4] concerns the target T4, MBP-TraR G123R, P33905.
T4 chain: T1 chain with G123R, D222A

Data set [5] deals with T5, MBP-TraR G153E, P33905.
T5 chain: T1 chain with G153E, D222A

The target of data set [6] is T6, MBP-TraR L5M, P33905.
T6 chain: T1 chain with L5M, D222A

Data set [7] addresses T7, MBP-TraR Q154A, P33905.
T7 chain: T1 chain with Q154A, D222A

Data set [8] has as its target T8, MBP-TraR S160A, P33905.
T8 chain: T1 chain with S160A, D222A

B1: native TraR (wild type) (protein)
chain: T1 chain with D222A
For the protein B1, the heterodimer formation (% of wild type) (% of wild type) in data set [1] is 29; in data set [2] it was 49; in data set [3], 39; in data set [4], 49; in data set [5], 19; in data set [6], 99. Further, the heterodimer formation (% of wild type) (% of wild type) came out at 27 in data set [7] and 100 in data set [8].
